The record followed here is publication PMC7149228.

For orientation: Kd means the equilibrium constant for the complex coming apart. Low readings indicate tighter binding, high ones weaker binding.

The assay addresses Polyubiquitinated model substrate (lac repressor degron-sfGFP) bearing long ubiquitin chains (E. coli | not stated) (UniProt P0CG48). The assay is described as follows: MST.

For the substance “Ddi1 construct containing the HDD and RVP domains (D220N) (domain or fragment)”, the Kd amounted to 100 µM.
